Measured values: publication PMC4136698
Read-outs that look alike come from different tables or passages of the source.

How the values were obtained:
Test in all cases: pull-down
[1] = biological target: SNAP tag–polyproline peptide fusion (…)
[2] = biological target: SH2 affinity peptide (EPQpYEEIPIYL)
[3] = biological target: SH2 affinity peptide (EPQpYEEIPIYL); remark: listed apart in the source

Row | Substance | percent of kinase retained by the immobilized SH3 domain ligand [1] [%] | percent of total kinase retained on beads [1] [%] | percent retained relative to Hck–1 [2] [%] | percent retained relative to Hck–1 [3] [%]
1 | Hck^Y527F (enzyme) | 38 | 2 |  | 
2 | Hck (residues 84–531) (enzyme) |  |  | 2 | 17
